# Measured values as given in the RNAGym collection of RNA variant scans (doi:10.1073/pnas.2313332121).
# B1: TPR t1 (parent)
# chain: GACCAAUCUGCCCUCAGAGCUCGAGAACAUCUUCGGAUGCAGAGGAGGCAGGCUUCGGUGGCGCGAUAGCGCCAACGUCCUCAACCUCCAAUGCAUCCCACCACAUGAUGAUGCCUGAAGAGCCUUGGUUUUUUG
# Variants of: B1
# Assay: polymerase ribozyme fitness, log enrichment relative to wild type (log ratio); higher = more active; in vitro selection for triplet polymerase activity
# Method in brief: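 Genotype fitness is the logarithm of its enrichment divided by wild-type enrichment, using inverse-variance-weighted averages of replicates. That logarithm is base 2. Enrichment was measured by Illumina sequencing of input and output libraries from one triplicate in vitro selection round, with frozen incubation at −7 °C, on PCR-built, transcribed mutant libraries of each subunit of a heterodimeric triplet polymerase ribozyme, retaining genotypes with ≥10 input reads and ≥1 read per output.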
row,Variant,polymerase ribozyme fitness (log ratio)
1,GACCAAUCUGCCCUCAGAGCUCGAGAACAUCUUCGGAUGCAGAGGAGGCAGGCUUCGGUCGCGCGAUAGCGCCAACGUCCUCAACCUCCAAUGCAACCCACCACAUGAUGAUGCCUGAAGAGCCUUGGUUUUUUG,-1.77
2,GACCAAUCUGCCCUCAGAGCUCGAGAACAUCUUCGGAUGCAGAGGAGGCAGGCUUCGGUCGCGCGAUAGCGCCAACGUCCUCAACCUCCAAUGCAUCCCACCACAUGAUGAUGCCUGAAAAGCCUUGGUUUUUUG,0.168
3,GACCAAUCUGCCCUCAGAGCUCGAGAACAUCUUCGGAUGCAGAGGAGGCAGGCUUCGGUCGCGCGAUAGCGCCAACGUCCUCAACCUCCAAUGCAUCCCACCACAUGAUGAUGCCUGAAGAGCCAUGGUUUUUUG,-0.729
4,GACCAAUCUGCCCUCAGAGCUCGAGAACAUCUUCGGAUGCAGAGGAGGCAGGCUUCGGUCGCGCGAUAGCGCCAACGUCCUCAACCUCCAAUGUAUCCCACCACAUGAUGAUGCCUGAAGAGCUUUGGUUUUUUG,1.26
5,GACCAAUCUGCCCUCAGAGCUCGAGAACAUCUUCGGAUGCAGAGGAGGCAGGCUUCGGUCGCGCGAUAGCGCCAACGUCCUCAACCUCCAAUGCAUCCCACCACAUGAUGAGGCCUGAAGAGCAUUGGUUUUUUG,-0.118
6,GACCAAUCUGCCCUCAGAGCUCGAGAACAUCUUCGGAUGCAGAGGAGGCAGGCUUCGGUCGCGCGAUAGCGCCAACGUCCUCAACCUCCAAUGCAUCCCACCACAUGAUGAUGCCUGAAGAGCCUUGGUUUAUUG,-0.171
7,GACCAAUCUGCCCUCAGAGCUCGAGAACAUCUUCGGAUGCAGAGGAGGCAGGCUUCGGUCCCGCGAUAGCGCCAACGUCCGCAACCUCCAAUGCAUCCCACCACAUGAUGAUGCUUGAAGAGCCUUGGUUUUUUG,-5.37
8,GACCAAUCUGCCCUCAGAGCUCGAGAACAUCUUCGGAUGCAGAGGAGGCAGGCUUCGGUCGCGCGAUAGCGCCAACGUCCUCAACCUCCAAUGCAUCCCACCACAUGAUGAAGCCUGAAGAGCCUUGGUUUUUUG,0.838
9,GACCAAUCUGCCCUCAGAGCUCGAGAACAUCUUCGGAUGCAGAGGAGGCAGGCUUCGGUCGCGCGAUAGCGCCAACGUCCUCAACCUCCAAUGCAUCCCACCACAUGAUGAGGCCUGAAGAGCCUUGGUUUUUUG,-0.433
10,GACCAAUCUGCCCUCAGAGCUCGAGAACAUCUUCGGAUGCAGAGGAGGCAGGCUUCGGUCGCGCGAUAGCGCCAACGUCCUCAACCUCCAAUGCAUCCCACAACAUGAUAAUGCCUGAAGAGCCUUGGUUUUUUG,-4.88
11,GACCAAUCUGCCCUCAGAGCUCGAGAACAUCUUCGGAUGCAGAGGAGGCAGGCUUCGGUCGCGCGAUAGAGCCAACGACCUCAAGCUCCAAUGCAUCUCACCACAUGAUGAUGCCUCAAGAGCCUUGGUUUUUUG,-6.56
12,GACCAAUCUGCCCUCAGAGCUCGAGAACAUCUUCGGAUGCAGAGGAGGCAGGCUUCGGUCGCGCGAUAGCGCCAACGUCCUCAACCUCCAAUGCAUCCCACCACAUGAUGAUGCCUUAAGAGCCUUGGUUUUUUG,-3.4
13,GACCAAUCUGCCCUCAGAGCUCGAGAACAUCUUCGGAUGCAGAGGAGGCAGGCUUCGGUCGCGCGAUAGCGCCAACGUCCUCAACCUCCAAUGCAUCCCACCACAUGAUGAUGCCUCAAGAGCCUUGGUUUUUUG,-4.28
14,GACCAAUCUGCCCUCAGAGCUCGAGAACAUCUUCGGAUGCAGAGGAGGCAGGCUUCGGUCGCGCGAUAGCGCCAACGUCCUCAACCUCCAAUGCAUCCCACCACUUGAUGAUGCCUGAAGAGCCUUGGUUUUUUG,-3.07
15,GACCAAUCUGCCCUCAGAGCUCGAGAACAUCUUCGGAUGCAGAGGAGGCAGGCUUCGGUCGCGCGAUAUCGCCAACGUCUUCAACCUCCAAUGCAUCCCACCACAUGAUGAUGCCUGAAGAGCCUUGGUUUUUUG,-5.8
16,GACCAAUCUGCCCUCAGAGCUCGAGAACAUCUUCGGAUGCAGAGGAGGCAGGCUUCGGUCGCGCGAUAGCGCUAACGUCCUCAACCUCCAAUGCAUCCCACCACAUGAUGAUGCCUGAAGAGCCUUGGUUUUUUG,-1.41
17,GACCAAUCUGCCCUCAGAGCUCGAGAACAUCUUCGGAUGCAGAGGAGGCAGGCUUCGGUCGCGUGAUAGCGCCAACGUCCUCAACCUCCAAUGCAUCCCACCACAUGAUGAUGCCUGAAGAGCCUUGGUUUUUUG,-5.26
18,GACCAAUCUGCCCUCAGAGCUCGAGAACAUCUUCGGAUGCAGAGGAGGCAGGCUUCGGUCGCGCGAUAGCGCCAACGUCCUCAACCUCCAAUGCAUCUCACCACAUGAUGAUGCCUGAAGAGCCUUGGUUUUUUG,-0.75
19,GACCAAUCUGCCCUCAGAGCUCGAGAACAUCUUCGGAUGCAGAGGAGGCAGGCUUCGGUCGCGCGAUAGCGCCAACGUCCUCAACCUCCAAUGGAACCCACCCCAUGAUGAUGCCUGAAGAGCCUUGGUUUUUUG,-6.59
20,GACCAAUCUGCCCUCAGAGCUCGAGAACAUCUUCGGAUGCAGAGGAGGCAGGCUUCGGUCGCGCGAUAGCGCCAACGUCCUCAACCUCCAAUGCAUCCCACCACAUGAUGAUGCCUGAAGAGCCUUGGUUUUUUA,-1.35
21,GACCAAUCUGCCCUCAGAGCUCGAGAACAUCUUCGGAUGCAGAGGAGGCAGGCUUCGGUCGCGCGAUAGCGCCAACGUCCUCAACCUCCAAUGCAUCCCACCACAUGAUGAUGCCUGAAGAGCCUUGGUUUUUUU,-1.23
